Measured values from paper PMC10306066.

Molecular target: Ralstonia solanacearum lectin (Ralstonia solanacearum)
Assay: crystal structure

Ralstonia solanacearum lectin (natural protein)
stoichiometry N: 3
